{"source": "paper PMC8547954", "about": "“Myopalladin knockout mice develop cardiac dilation and show a maladaptive response to mechanical pressure overload” (eLife, 2021)", "binders": {"B1": {"name": "titin Ig domains Z4-Z5 (Res. 942-1173), N-terminal 6xHis-tag (domain or fragment, human, UniProt Q8WZ42-1 942-1173, looked up)", "chain": "PPTLVSGLKNVTVIEGESVTLECHISGYPSPTVTWYREDYQIESSIDFQITFQSGIARLMIREAFAEDSGRFTCSAVNEAGTVSTSCYLAVQVSEEFEKETTAVTEKFTTEEKRFVESRDVVMTDTSLTEEQAGPGEPAAPYFITKPVVQKLVEGGSVVFGCQVGGNPKPHVYWKKSGVPLTTGYRYKVSYNKQTGECKLVISMTFADDAGEYTIVVRNKHGETSASASLLE", "modifications": "NT-647 dye via NHS-driven amino coupling (only where it was the labelled partner, Figure 1B)", "notes": "titin, human, Ig domains Z4-Z5, residues 942-1173 of NM_001256850.1; Labelled with NT-647 in assay a3, unlabelled in assay a4; also called titin Ig domain Z4-Z5 peptide; titin Ig domain Z4-Z5 fragment; source: E. coli BL21-CodonPlus (DE3)-RIPL, purified (HisTrap, Superdex 75 SEC)"}}, "settings_in_all_cases": "both partners purified", "key": {"[1]": {"biological_target": "T1, human MYPN C-terminal region including three Ig domains (MYPN C-term; Res. 813-1320), N-terminal 6xHis-tag (human, UniProt Q86TC9-1 813-1320, NT-647 dye via NHS-driven amino coupling (only where it was the labelled partner, Figure 1C))", "T1 construct": "Unlabelled in assay a3, labelled with NT-647 in assay a4; also called MYPN C-terminal fragment; MYPN C-terminal domain; source: E. coli BL21-CodonPlus (DE3)-RIPL, purified (HisTrap, Superdex 75 SEC)", "T1 sequence (looked up)": "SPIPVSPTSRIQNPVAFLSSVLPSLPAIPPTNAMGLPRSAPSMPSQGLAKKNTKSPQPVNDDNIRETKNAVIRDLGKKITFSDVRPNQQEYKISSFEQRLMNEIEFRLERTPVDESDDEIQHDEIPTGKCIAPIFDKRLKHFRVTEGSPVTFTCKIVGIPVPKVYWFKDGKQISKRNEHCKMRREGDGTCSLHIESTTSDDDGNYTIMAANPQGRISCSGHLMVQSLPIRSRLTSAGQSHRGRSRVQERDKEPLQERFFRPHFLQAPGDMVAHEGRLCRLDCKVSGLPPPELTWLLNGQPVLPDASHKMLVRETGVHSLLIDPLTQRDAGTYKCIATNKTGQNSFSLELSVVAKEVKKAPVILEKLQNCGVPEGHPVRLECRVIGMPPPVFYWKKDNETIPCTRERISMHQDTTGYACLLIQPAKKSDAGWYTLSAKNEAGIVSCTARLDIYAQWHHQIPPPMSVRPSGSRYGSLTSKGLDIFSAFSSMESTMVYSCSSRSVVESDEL", "test": "MST; 400 nM NT-647-labelled MYPN C-term titrated with titin Ig Z4-Z5; 30 min at room temperature in 20 mM Tris-HCl pH 8, 150 mM NaCl, 5 mM EDTA, 4 mM DTT; Hill fit; full saturation reached; apparent"}, "[2]": {"biological_target": "T1, human MYPN C-terminal region including …", "test": "MST; 450 nM NT-647-labelled titin Ig Z4-Z5 titrated with MYPN (up to 20 µM) or PALLD (up to 30 µM) C-term; 30 min at room temperature in 20 mM Tris-HCl pH 8, 150 mM NaCl, 5 mM EDTA, 4 mM DTT; Hill fit; saturation not reached, Kd could not be unequivocally determined; apparent"}, "[3]": {"biological_target": "T2, PALLD C-terminal region (PALLD C-term; Res. 794-1123), N-terminal 6xHis-tag followed by a human rhinovirus 3C … (human, UniProt Q8WX93-9 794-1123)", "T2 construct": "numbers count on: NM_001166108.1; A 3C protease site follows the tag; also called homologous fragment of PALLD; PALLD C-terminal domain; source: E. coli BL21-CodonPlus (DE3)-RIPL, purified (HisTrap, Superdex 75 SEC)", "T2 sequence (looked up)": "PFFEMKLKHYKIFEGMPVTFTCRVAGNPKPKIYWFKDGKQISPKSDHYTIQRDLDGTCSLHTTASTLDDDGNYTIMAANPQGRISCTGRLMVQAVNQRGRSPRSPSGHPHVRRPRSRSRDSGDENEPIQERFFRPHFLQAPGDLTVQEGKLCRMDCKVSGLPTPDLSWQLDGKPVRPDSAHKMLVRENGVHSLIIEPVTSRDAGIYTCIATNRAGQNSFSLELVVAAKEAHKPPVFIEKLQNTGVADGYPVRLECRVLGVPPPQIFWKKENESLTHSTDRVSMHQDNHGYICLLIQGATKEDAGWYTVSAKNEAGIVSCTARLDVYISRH", "test": "MST; 450 nM NT-647-labelled titin Ig Z4-Z5 titrated with MYPN (up to 20 µM) or PALLD (up to 30 µM) C-term; 30 min at room temperature in 20 mM Tris-HCl pH 8, 150 mM NaCl, 5 mM EDTA, 4 mM DTT; Hill fit; saturation not reached, Kd could not be unequivocally determined; apparent"}}, "data": [{"binder": "B1", "values": [{"measurement": "Kd", "setting": "[1]", "result": "2.8 ± 0.5", "unit": "µM"}, {"measurement": "Kd", "setting": "[2]", "result": "7.2 ± 2.6", "unit": "µM"}, {"measurement": "Kd", "setting": "[3]", "result": "6.1 ± 0.8", "unit": "µM"}]}]}
